Measured values as given in patent publication US20240002497A1 (Merck Sharp & Dohme, published 2024).

Assays:
[1] = molecular target: T1, rhNav1.7α+β1-β2-β3 (rhesus monkey α subunit with human β …); experiment: cell-based or functional assay
[2] = molecular target: rhNav1.7α (rhesus monkey, UniProt Q15858 1-1988 (human entry)); experiment: cell-based or functional assay
[3] = molecular target: T2, huNav1.7α+β1 (human, UniProt Q15858 1-1988; Q07699 19-218); experiment: cell-based or functional assay
[4] = molecular target: T3, huNav1.7α (human, UniProt Q15858 1-1988); experiment: cell-based or functional assay
[5] = molecular target: T1, rhNav1.7α+β1-β2-β3; experiment: binding FACS, CHO FlpIn cells
[6] = molecular target: T3, huNav1.7α; experiment: binding FACS, HEKa cells
[7] = molecular target: T2, huNav1.7α+β1; experiment: binding FACS, HEKa/β1 cells
[8] = molecular target: T4, huNav1.7α + β1 (HEKa/β1) (human, UniProt Q15858 1-1988; Q07699 19-218); experiment: binding FACS, HEKa/β1 cells
T4 construct: also called HEKa/β1 huNav1.7α
How it was run: (§1)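 Cells are first suspended in FACS buffer at 1×10^5 per well. Next, FLAG3-tagged ISVD is added for 30 minutes at 4° C, and binding is then detected with murine anti-Flag. Finally, samples go into 1 μg/mL propidium iodide before flow cytometry.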

[9] = molecular target: T5, huNav1.7α (HEKa) (human, UniProt Q15858 1-1988); experiment: binding FACS, HEKa cells
T5 construct: also called HEKa huNav1.7α
Procedure: Binding of the ISVDs to cell-expressed Nav1.7α was detected via murine anti-Flag (Sigma, catalog #F1804). Briefly, cells were resuspended in FACS buffer (PBS, 10% FBS, NaN₃) and transferred to a 96-well V-bottom plate at 1×10^5 cells/well. Purified FLAG3-tagged ISVD was diluted in FACS buffer and added to the cells for 30 minutes at 4° C. […] Prior to the read-out, the samples were resuspended in 1 μg/mL propidium iodide (Sigma, catalog #P4170) to exclude dead cells. Between each step, the cells were centrifuged for 5 minutes at 200 grams and washed with 100 μL/well FACS buffer.

[10] = molecular target: T6, huNav1.7α on HEK cells (without β subunits) (human, UniProt Q15858 1-1988); experiment: binding FACS, HEK cells (HEKa)
T6 construct: also called HEKa huNav1.7α

[11] = molecular target: T7, huNav1.7α + β1-β2-β3 (human Nav1.7α co-expressed with human Navβ1, Navβ2 and Navβ3 on cells) (human); experiment: binding FACS, CHO FlpIn cells
T7 construct: also called huNav1.7-beta1-beta2-beta3; CHO FlpIn huNav1.7α + β1-β2-β3
How it was run: as §1

[12] = molecular target: T8, rhNav1.7α + β1-β2-β3 (rhesus Nav1.7α co-expressed with Navβ1, Navβ2 and Navβ3 on cells) (rhesus monkey (α subunit); β subunits …); experiment: binding FACS, CHO FlpIn cells
T8 construct: also called rhNav1.7-beta1-beta2-beta3; CHO FlpIn rhNav1.7α + β1-β2-β3
How it was run: as §1

[13] = molecular target: huNav1.7α + β1 on HEK cells (human, UniProt Q15858 1-1988; Q07699 19-218); experiment: binding FACS, HEK cells (HEKa/b1)

Row | Binder | single pulse IC50 [1] [µM] | single pulse IC50 [3] [µM] | EC50 [5] [µM] | EC50 [8] [µM] | EC50 [9] [µM] | further results
1 | F010300477 (VHH, vs F0103275B05: A94W) VHH: EVQLVESGGGLVQPGGSLRLSCAASGSIFNINSMAWYRRAPGKQRELVASSTNGGSTNYADSVKGRFTISRDNAKRVYLQMNSLTPEDTAVYYCNWLLQPSIYDISRTYWGQGTLVTVSS | 1.2 | 0.096 | 0.17 | – | – | 2-pulse IC50 [M], P1 [2]: 3e-06 M; 2-pulse IC50 [M], P2 [2]: 1e-06 M; 2-pulse IC50 [M], P1 [4]: 2e-06 M; 2-pulse IC50 [M], P2 [4]: 2e-06 M
2 | F010300631 (VHH, vs F0103275B05: S27P, I28V, S50Y, N53P, N93R) VHH: EVQLVESGGGLVQPGGSLRLSCAASGPVFNINSMAWYRRAPGKQRELVAYSTPGGSTNYADSVKGRFTISRDNAKRVYLQMNSLTPEDTAVYYCRALLQPSIYDISRTYWGQGTLVTVSS | 0.17 | 0.073 | 0.045 | – | – | 2-pulse IC50 [M], P1 [2]: 2e-06 M; 2-pulse IC50 [M], P2 [2]: 8e-07 M; 2-pulse IC50 [M], P1 [4]: 1e-06 M; 2-pulse IC50 [M], P2 [4]: 8e-07 M
3 | F010300684 (VHH, vs F0103275B05: S27P, I28V, I31W, N53P, N93R, T101I) VHH: EVQLVESGGGLVQPGGSLRLSCAASGPVFNWNSMAWYRRAPGKQRELVASSTPGGSTNYADSVKGRFTISRDNAKRVYLQMNSLTPEDTAVYYCRALLQPSIYDISRIYWGQGTLVTVSS | 0.21 | 0.2 | 0.05 | – | – | 2-pulse IC50 [M], P1 [2]: 7e-06 M; 2-pulse IC50 [M], P2 [2]: 1e-06 M; 2-pulse IC50 [M], P1 [4]: 2e-06 M; 2-pulse IC50 [M], P2 [4]: 2e-06 M
4 | F010300880 (VHH, vs F0103275B05: S27P, I28V, S33R, N53P, S56D, N93R, A94W) VHH: EVQLVESGGGLVQPGGSLRLSCAASGPVFNINRMAWYRRAPGKQRELVASSTPGGDTNYADSVKGRFTISRDNAKRVYLQMNSLTPEDTAVYYCRWLLQPSIYDISRTYWGQGTLVTVSS | 0.12 | 0.027 | 0.026 | – | – | EC50 [6]: 0.015 µM; EC50 [7]: 0.044 µM
5 | F010300900 (VHH, vs F0103275B05: S27P, I28V, S33R, N53P, S56D, N93R, A94W, T101I) VHH: EVQLVESGGGLVQPGGSLRLSCAASGPVFNINRMAWYRRAPGKQRELVASSTPGGDTNYADSVKGRFTISRDNAKRVYLQMNSLTPEDTAVYYCRWLLQPSIYDISRIYWGQGTLVTVSS | 0.036 | 0.2 | 0.025 | – | – | EC50 [6]: 0.02 µM; EC50 [7]: 0.07 µM
6 | F010300948 (VHH, vs F0103275B05: S27P, I28V, S33R, N53P, N93R, A94W, T101I) VHH: EVQLVESGGGLVQPGGSLRLSCAASGPVFNINRMAWYRRAPGKQRELVASSTPGGSTNYADSVKGRFTISRDNAKRVYLQMNSLTPEDTAVYYCRWLLQPSIYDISRIYWGQGTLVTVSS | 0.058 | 0.32 | 0.02 | – | – | EC50 [6]: 0.069 µM; EC50 [7]: 0.068 µM
7 | F010301652 (VHH, also called F0103275B05(L11V, S33R, S50Y, S56D, R76N, T83R, V89L, N93R)) VHH: EVQLVESGGGVVQPGGSLRLSCAASGSIFNINRMAWYRRAPGKQRELVAYSTNGGDTNYADSVKGRFTISRDNAKNVYLQMNSLRPEDTALYYCRALLQPSIYDISRTYWGQGTLVTVSS | – | – | – | – | – | EC50 [10]: 0.024 µM; EC50 [11]: 0.061 µM; EC50 [12]: 0.024 µM; EC50 [13]: 0.038 µM
8 | F010301653 (VHH, also called F0103275B05(L11V, S33R, S50Y, S56D, T83R, V89L, N93R)) VHH: EVQLVESGGGVVQPGGSLRLSCAASGSIFNINRMAWYRRAPGKQRELVAYSTNGGDTNYADSVKGRFTISRDNAKRVYLQMNSLRPEDTALYYCRALLQPSIYDISRTYWGQGTLVTVSS | – | – | – | – | – | EC50 [10]: 0.015 µM; EC50 [11]: 0.036 µM; EC50 [12]: 0.016 µM; EC50 [13]: 0.029 µM
9 | F010301654 (VHH, also called F0103275B05(L11V, S33R, R39Q, S50Y, S56D, T83R, V89L, N93R)) VHH: EVQLVESGGGVVQPGGSLRLSCAASGSIFNINRMAWYRQAPGKQRELVAYSTNGGDTNYADSVKGRFTISRDNAKRVYLQMNSLRPEDTALYYCRALLQPSIYDISRTYWGQGTLVTVSS | – | – | – | – | – | EC50 [10]: 0.018 µM; EC50 [11]: 0.032 µM; EC50 [12]: 0.018 µM; EC50 [13]: 0.025 µM
10 | F010301655 (VHH, also called F0103275B05(L11V, S33R, R39Q, S50Y, S56D, R76N, T83R, V89L, N93R)) VHH: EVQLVESGGGVVQPGGSLRLSCAASGSIFNINRMAWYRQAPGKQRELVAYSTNGGDTNYADSVKGRFTISRDNAKNVYLQMNSLRPEDTALYYCRALLQPSIYDISRTYWGQGTLVTVSS | – | – | – | – | – | EC50 [10]: 0.019 µM; EC50 [11]: 0.046 µM; EC50 [12]: 0.026 µM; EC50 [13]: 0.028 µM

The next lines start with results.

Row | single pulse IC50 [1] [µM] | single pulse IC50 [3] [µM] | EC50 [5] [µM] | EC50 [8] [µM] | EC50 [9] [µM] | Binder | further results
11 | – | – | – | 0.016 | 0.02 | F010301657 (VHH) VHH: EVQLVESGGGLVQPGGSLRLSCAASVRPFSTSAMGWFRQAPEKEREAVAGILWNGIVTYYADSVKGRFTISRDNAKNEVYLQMNKLKPEDTAVYYCALDRAYQGRSFSAKEYEYWGQGTLVTVSS | –
12 | – | – | – | 0.02 | 0.023 | F010301658 (VHH) VHH: EVQLVESGGGLVQPGGSLRLSCAASVRPFSTSAMGWFRQAPEKEREAVAAILWNGIVTYYADSVKGRFTISRDNAKNEVYLQMNKLKPEDTAVYYCALDRAYQGRSFSAKEYEYWGQGTLVTVSS | –
13 | – | – | – | 0.012 | 0.011 | F010301659 (VHH) VHH: EVQLVESGGGLVQPGGSLRLSCAASVRPFSTSAMGWFRQAPEKEREAVAAILWNGIVTYYADSVKGRFTISRDNAKNEVYLQMNKLKPEDTAVYYCALDRAYGGRSFSAYEYEYWGQGTLVTVSS | –
14 | – | – | – | 0.018 | 0.016 | F010301661 (VHH) VHH: EVQLVESGGGLVQPGGSLRLSCAASVRPFSTSAMGWFRQAPEKEREAVAAILWNGIVTYYADSVKGRFTISRDNAKNEVYLQMNKLKPEDTAVYYCALDRDYGGRSFSAKEYEYWGQGTLVTVSS | –
15 | – | – | – | 0.014 | 0.013 | F010301663 (VHH) VHH: EVQLVESGGGLVQPGGSLRLSCAASVRPFSTSAMGWFRQAPEKEREAVAGILWNGIVTYYADSVKGRFTISRDNAKNEVYLQMNKLKPEDTAVYYCALDRAYGGRSFSAKEYEYWGQGTLVTVSS | –
16 | – | – | – | 0.018 | 0.013 | F010301664 (VHH) VHH: EVQLVESGGGLVQPGGSLRLSCAASVRPFSTSAMGWFRQAPEKEREAVAGILWNGIVTYYADSVKGRFTISRDNAKNEVYLQMNKLKPEDTAVYYCALDRDYQGRSFSAKEYEYWGQGTLVTVSS | –
17 | – | – | – | 0.014 | 0.01 | F010301666 (VHH) VHH: EVQLVESGGGLVQPGGSLRLSCAASVRPFSTSAMGWFRQAPEKEREAVAAILWNGIVTYYADSVKGRFTISRDNAKNEVYLQMNKLKPEDTAVYYCALDRDYQGRSFSAKEYEYWGQGTLVTVSS | –
18 | – | – | – | 0.017 | 0.019 | F010301662 (VHH) VHH: EVQLVESGGGLVQPGGSLRLSCAASVRPFSTSAMGWFRQAPEKEREAVAGILWNGIVTYYADSVKGRFTISRDNAKNEVYLQMNKLKPEDTAVYYCALDRAYQGRSFSAYEYEYWGQGTLVTVSS | –
19 | – | – | – | 0.011 | 0.0088 | F010301665 (VHH) VHH: EVQLVESGGGLVQPGGSLRLSCAASVRPFSTSAMGWFRQAPEKEREAVAAILWNGIVTYYADSVKGRFTISRDNAKNEVYLQMNKLKPEDTAVYYCALDRAYGGRSFSAKEYEYWGQGTLVTVAA | –
